Experimental data as given in patent US20110189205A1.

Legend:
[1] = molecular target: CGRP receptor on human MDA-MB-231BR breast cancer cells (human) (UniProt Q16602); experiment: cell-based or functional assay
[2] = molecular target: CGRP receptor on rat CNS1 glioma cells (rat) (UniProt Q63118); experiment: cell-based or functional assay
Sequence of CGRP receptor on rat CNS1 glioma cells (rat) (Q63118 24-464, chain 1 of 2): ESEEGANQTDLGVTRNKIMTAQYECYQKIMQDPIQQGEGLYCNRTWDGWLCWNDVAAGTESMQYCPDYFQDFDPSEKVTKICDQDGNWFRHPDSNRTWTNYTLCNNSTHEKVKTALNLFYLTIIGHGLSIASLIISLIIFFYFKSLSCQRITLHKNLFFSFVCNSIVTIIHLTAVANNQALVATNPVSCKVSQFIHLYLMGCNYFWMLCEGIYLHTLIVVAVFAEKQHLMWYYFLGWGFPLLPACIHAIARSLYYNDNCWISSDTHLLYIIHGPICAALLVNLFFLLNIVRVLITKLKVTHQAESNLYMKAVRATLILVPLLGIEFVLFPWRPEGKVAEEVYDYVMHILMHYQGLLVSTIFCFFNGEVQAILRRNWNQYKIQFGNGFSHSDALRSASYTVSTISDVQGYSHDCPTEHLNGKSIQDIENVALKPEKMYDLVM
Sequence of CGRP receptor on rat CNS1 glioma cells (rat) (Q9JJ74 27-148, chain 2 of 2, further chain): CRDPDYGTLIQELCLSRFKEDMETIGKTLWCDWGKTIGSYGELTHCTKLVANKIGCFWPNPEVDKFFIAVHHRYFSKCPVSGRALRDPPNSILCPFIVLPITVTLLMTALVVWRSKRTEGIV

Sequence of CGRP receptor on human MDA-MB-231BR breast cancer cells (human) (Q16602 23-461, chain 1 of 2): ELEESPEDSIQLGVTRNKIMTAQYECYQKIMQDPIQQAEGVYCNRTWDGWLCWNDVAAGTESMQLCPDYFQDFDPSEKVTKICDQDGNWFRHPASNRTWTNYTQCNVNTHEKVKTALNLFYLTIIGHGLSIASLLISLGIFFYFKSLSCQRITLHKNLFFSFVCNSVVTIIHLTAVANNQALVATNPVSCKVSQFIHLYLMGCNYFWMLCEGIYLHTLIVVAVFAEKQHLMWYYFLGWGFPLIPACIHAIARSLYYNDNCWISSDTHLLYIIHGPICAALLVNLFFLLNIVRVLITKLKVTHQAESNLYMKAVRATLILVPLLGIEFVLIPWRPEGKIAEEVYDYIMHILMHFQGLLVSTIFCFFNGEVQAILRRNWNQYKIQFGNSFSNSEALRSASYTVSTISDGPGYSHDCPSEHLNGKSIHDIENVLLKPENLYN
Sequence of CGRP receptor on human MDA-MB-231BR breast cancer cells (human) (O60894 27-148, chain 2 of 2, further chain): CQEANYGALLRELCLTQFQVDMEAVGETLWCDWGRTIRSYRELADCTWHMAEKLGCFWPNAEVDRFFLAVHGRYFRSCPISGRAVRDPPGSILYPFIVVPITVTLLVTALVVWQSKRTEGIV

Question: “calcitonin gene-related peptide (CGRP), unlabeled (from UniProt P01256 83-119)” was tested. Which MDA-MB-231BR cell growth over control, normoxic conditions, 4 days in culture [1] did it give?
Answer: Its MDA-MB-231BR cell growth over control, normoxic conditions, 4 days in culture is 6 fold.

Question: What about the CNS1 cell growth over control, normoxic conditions, 4 days in culture [2] of the same substance?
Answer: The CNS1 cell growth over control, normoxic conditions, 4 days in culture was 4 fold.

Question: What about the CNS1 cell growth over control, normoxic conditions, 5 days in culture [2] of the same substance?
Answer: Its CNS1 cell growth over control, normoxic conditions, 5 days in culture is 11 fold.

Question: And the CNS1 glioma growth over control, hypoxic conditions, 4 days in culture [2]?
Answer: Its CNS1 glioma growth over control, hypoxic conditions, 4 days in culture is 72 fold.

Question: And the CNS1 glioma growth over control, hypoxic conditions, 5 days in culture [2]?
Answer: Its CNS1 glioma growth over control, hypoxic conditions, 5 days in culture is 10 fold.
